Reference: paper PMC5118791, “Beyond Antibodies: Development of a Novel Protein Scaffold Based on Human Chaperonin 10” (Scientific Reports, 2016)

B1: CE76-P1 (hCpn10 scaffold displaying the E-76 peptide with P1 linkers) (designed binder)
chain: AGQAFRKFLPLFDRVLVERSAAAPALCDDPRVDRWYCQFVEGAAPGKVLQATVVAVGSGSKGKGGEIQPVSVKVGDKVLLPEYGGTKVVLDDKDYFLFRDGDILGKYVD
B2: CE76-E5 (hCpn10 scaffold displaying the E-76 peptide with E5 linkers) (designed binder)
chain: AGQAFRKFLPLFDRVLVERSAAETVALCDDPRVDRWYCQFVEGEKSQGKVLQATVVAVGSGSKGKGGEIQPVSVKVGDKVLLPEYGGTKVVLDDKDYFLFRDGDILGKYVD

Experiments:
[1] = target: T1, recombinant Factor VIIa (rFVIIa); assay: BLI; Octet Red, Ni-NTA biosensors, 37 °C, 1000 rpm; association 180 sec, dissociation 10 min; 1:1 model, global fit; the legend of Figure 4b says rFVIIa was immobilised; settings: both partners purified
T1 construct: rFVIIa (NovoSeven RT); no His tag on rFVIIa is stated anywhere; also called NovoSeven RT; source: bought: NovoSeven RT (named for the ELISA)

[2] = target: T1, recombinant Factor VIIa (rFVIIa); assay: cell-based or functional assay
[3] = target: the molecule itself; assay: SEC; analytical SE-HPLC, TSK G3000SWXL, 0.1 M phosphate pH 7.8, 0.2 M NaCl, 1 mg/mL, 0.8 mL/min, 25 °C; calibrated with BioRad standards

T1 sequence (P08709 whole entry): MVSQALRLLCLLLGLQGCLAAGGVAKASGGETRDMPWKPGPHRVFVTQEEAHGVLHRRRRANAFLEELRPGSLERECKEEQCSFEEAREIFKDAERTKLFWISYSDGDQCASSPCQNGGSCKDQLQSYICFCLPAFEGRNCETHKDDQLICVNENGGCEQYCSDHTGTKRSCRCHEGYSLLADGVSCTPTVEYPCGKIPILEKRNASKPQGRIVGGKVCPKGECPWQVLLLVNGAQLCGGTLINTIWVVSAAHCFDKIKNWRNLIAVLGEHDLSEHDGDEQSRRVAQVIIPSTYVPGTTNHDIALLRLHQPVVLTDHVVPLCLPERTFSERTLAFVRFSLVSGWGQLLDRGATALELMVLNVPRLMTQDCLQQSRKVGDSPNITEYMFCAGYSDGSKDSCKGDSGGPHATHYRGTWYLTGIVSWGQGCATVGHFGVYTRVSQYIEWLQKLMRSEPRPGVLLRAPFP

Binder | Kd [1] | inhibition of FX activation by TF-FVIIa (chromogenic substrate S-2765), IC50 [2] | inhibition of amidolytic activity of FVIIa (Chromozym t-PA) in the presence of TF, IC50 [2] | inhibition of amidolytic activity of FVIIa (Chromozym t-PA) without TF, IC50 [2] | prothrombin time (PT) in citrated human plasma, 0.001-100 μM, fold prolongation over normal clotting time [2] | stoichiometry N [3]
B1 | 3 nM | 1.5 nM | 6.8 nM | 8.4 nM | 7 fold | 7
B2 | 5.5 nM | – | – | – | – | 7
